Experimental data from patent US20140120557A1.
pKd: −log10 of the molar value. Values belong to the substance of their own block, whether it stands above or below them.

How the values were obtained:
[1] = target: 5C.C7 TCR (as measured by surface plasmon resonance) (mouse); test: SPR
[2] = target: 5C.C7 TCR on 5C.C7 T cell blasts (mouse) (UniProt A2KF29); test: cell-based or functional assay
[3] = target: 5C.C7 TCR on 5C.C7 T cell blasts (mouse) (UniProt A2KF29); test: flow cytometry; 2 µM BioMCC(ASA)-I-Ek photocrosslinked to 5C.C7 T cell blasts, against about 38,000 TCRs per T cell
[4] = target: 5C.C7 TCR on 5C.C7 T cell blasts (mouse) (UniProt A2KF29); test: flow cytometry; 5C.C7 T cell blasts, one hour at room temperature after staining
[5] = target: OT-1 TCR on naïve OT-1 T cells (mouse); test: flow cytometry; naïve OT-1 T cells, pMHC 1 µM, UV photocrosslinking, PE-SAv

Chain of 102S-I-Ek (P04224 26-216): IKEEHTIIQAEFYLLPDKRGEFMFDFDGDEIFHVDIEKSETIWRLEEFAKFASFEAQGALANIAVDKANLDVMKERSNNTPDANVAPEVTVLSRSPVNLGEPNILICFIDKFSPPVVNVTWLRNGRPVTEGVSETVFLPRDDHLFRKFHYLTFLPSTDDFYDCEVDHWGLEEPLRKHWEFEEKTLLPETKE
Chain of OVA(ASA)-Kb (P01901 22-305): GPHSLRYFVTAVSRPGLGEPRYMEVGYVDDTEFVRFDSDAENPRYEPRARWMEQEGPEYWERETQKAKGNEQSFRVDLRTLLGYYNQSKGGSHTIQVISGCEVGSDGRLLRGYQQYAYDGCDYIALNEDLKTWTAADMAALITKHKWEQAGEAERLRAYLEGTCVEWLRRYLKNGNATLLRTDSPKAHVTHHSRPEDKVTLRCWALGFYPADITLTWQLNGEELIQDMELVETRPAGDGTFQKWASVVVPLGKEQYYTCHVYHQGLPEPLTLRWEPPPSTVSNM
Chain of MCC(Cy5)-I-Ek (P04224 26-216): as the sequence (P04224 26-216) above
Chain of PE-conjugated MCC-I-Ek tetramer (P04224 26-216): as above

Substance: 102S-I-Ek (from UniProt P04224 26-216) (peptide-MHC)
pKd [1]: 3.69
t1/2 [1]: 0.83 s

Substance: MCC(Cy5)-I-Ek (from UniProt P04224 26-216) (peptide-MHC)
peak of fura-2 excitation ratio (340 nm/380 nm) above the baseline; 6100 standard agonist pMHCs per cell [2]: 2.5 fold

Substance: OVA(ASA)-Kb (from UniProt P01901 22-305) (peptide-MHC)
fold efficiency of staining against the null SIAAFASL(ASA)-Kb monomer [5]: > 10 fold

Further lines, results first:

duration of calcium flux on planar lipid bilayer with ICAM-1 and B7-1 [2]: > 10 min
duration of calcium flux on planar lipid bilayer without ICAM-1 and B7-1 [2]: 3 min
peak of fura-2 excitation ratio (340 nm/380 nm) above the baseline; 5100 or 7900 photocrosslinked pMHCs per cell [2]: 2.5 fold
percent of the total TCRs on a T cell surface permanently bound [3]: 16%
decrease of the staining signal after one hour at room temperature [4]: 5%
Substance: BioMCC(ASA)-I-Ek (from UniProt P04224 26-216) (peptide-MHC)

decrease of the staining signal after one hour at room temperature [4]: 50%
Substance: PE-conjugated MCC-I-Ek tetramer (from UniProt P04224 26-216) (peptide-MHC)
